Reference: patent US20240425837A1 (Novo Nordisk, published 2024)
No end group written: not given here.

What was measured:
Assay in all cases: ELISA, biotinylated 12-mer peptide on streptavidin, 2 ug/mL FLAG-tagged VHH, anti-FLAG-HRP
[1] = biological target: T1, FX activation peptide 12-mer … (SEQ ID NO:727) (human)
T1 sequence (peptide, C-terminally conjugated to biotin): LLDFNQTQPERG

[2] = biological target: T2, FX activation peptide 12-mer SSSGEAPDSITW (SEQ ID NO:699) (human)
T2 peptide: SSSGEAPDSITW-biotin
Procedure: (§1) To determine whether the binding epitope of the anti-FX VHH polypeptide designated “cmpd #1” are located inside the activation peptide (AP) of human FX (SEQ ID NO:2), an ELISA assay was setup. 41 unique 12-mer peptide fragments spanning the 52 residues of the activation peptide with one amino acid spacing were immobilized in microtiter plate wells followed by incubation with the VHH polypeptide to be tested, and detection of bound ligand was performed by addition of a secondary HRP-labelled antibody.
(§2) The peptides were C-terminally conjugated to biotin and 50 μL of 1 μg/mL peptide solution was used for immobilization in discrete wells of the microtiter plate which was pre-coated with 1 μg/mL streptavidin. Each well was washed with washing buffer (10 mM Tris, 150 mM NaCl, 2.5 mM CaCl₂, 0.05% Tween 20, pH 8.60) followed by addition of 50 μL of 2 μg/mL FLAG-tagged anti-FX VHH polypeptide or IgG antibody to be tested. After 1 hour non-bound VHH polypeptide was washed off using washing buffer.
(§3) Bound anti-FX activation peptide ligand was detected by first binding a HRP-labelled secondary antibody (for FLAG-tagged VHH polypeptide: Anti-FLAG mAb M2-Peroxidase (HRP) (Sigma Aldrich, US) for 1 hour, and then adding 100 μL TMB-1 ELISA substrate (Kem-En-Tec Diagnostics, Denmark).

[3] = biological target: T3, FX activation peptide 12-mer TWKPYDAADLDP (SEQ ID NO:709) (human)
T3 peptide: TWKPYDAADLDP-biotin
Procedure: as §1, §2, §3

[4] = biological target: T4, FX activation peptide 12-mer LDPTENPFDLLD (SEQ ID NO:718) (human)
T4 peptide: LDPTENPFDLLD-biotin
Procedure: as §1, §2, §3

[5] = biological target: T5, FX activation peptide 12-mer DPTENPFDLLDF (SEQ ID NO:719) (human)
T5 peptide: DPTENPFDLLDF-biotin
Procedure: as §1, §2, §3

ELISA signal normalized relative to the background signal (fold of background) [1]: 1.88
ELISA signal normalized relative to the background signal [2]: 0.86 fold of background
ELISA signal normalized relative to the background signal [3]: 1.13 fold of background
ELISA signal normalized relative to the background signal [4]: 1.11 fold of background
ELISA signal normalized relative to the background signal [5]: 4.16 fold of background
B1: Cmpd #1 (monovalent anti-FX VHH polypeptide, VHH-1.1) (VHH)
VHH: EVQLVESGGGLVQPGGSLRLSCAASGSIGAFDAMGWYRQAPGKQRELVAGIMVSRGNTNYTDSVKGRFTISRDNAKNTVYLQMNSLKPEDTAVYYCKAVKRPGPGYLEVWGQGTLVTVSS
notes: no protractor; FLAG-tagged in the peptide ELISA
